B1: LINE1-full (parent)
chain: UACGUAGGUGGUUUUCCCCUGAUAGUGCUAAGGGGGCCUGGAAGUUUGGACUGGGCAGAGCUCAACACAGCGUGGCAAAGUGGCUGUGGCUAGACUGCCUCUCUGGAUUCCUCGUCACUCAGCAGGGCAUCUCUGAGAGAAAUGCC

In the data set the parent is B1. In words: self-cleavage, relative activity (ratio to wild type); higher = more cleavage; in vitro, sequencing; the parent is a self-cleaving ribozyme.
With UACGUAGGUGGUUUCCCCCUGAUAGUGCUAAGGGGGCCUGGAGGUUUGGACUGGGCAGAGCUCAACACAGCGUGGCAAAGUGGCUGUGGCUAGACUGCCUCUCUGGAUUCCUCGUCACUCAGCAGGGCAUCUCUGAGAGAAAUGCC, the self-cleavage is 1.4.
The same measure for UACGUAGGUGGUUUCCCCCUGAUAGUGCUAAGGGGGCCUGGAUGUUUGGACUGGGCAGAGCUCAACACAGCGUGGCAAAGUGGCUGUGGCUAGACUGCCUCUCUGGAUUCCUCGUCACUCAGCAGGGCAUCUCUGAGAGAAAUGCC: 1.09; for UACGUAGGUGGUUUCCCCCUGAUAGUGCUAAGGGGGCCUGGAAGUUUGGAUUGGGCAGAGCUCAACACAGCGUGGCAAAGUGGCUGUGGCUAGACUGCCUCUCUGGAUUCCUCGUCACUCAGCAGGGCAUCUCUGAGAGAAAUGCC: 1.26.
Turning to UACGUAGGUGGUUUCCCCCUGAUAGUGCUAAGGGGGCCUGGAAGUUUGGACUGGGCAGAGCUCAACACAGCGUGGCAAAGUGGCUGUGGCUAGACUGCCUGUCUGGAUUCCUCGUCACUCAGCAGGGCAUCUCUGAGAGAAAUGCC, the self-cleavage worked out at 1.31.
The same measure for UACGUAGGUGGUUUCCCCCUGAUAGUGCUAAGGGGGCCUGGAAGUUUGGACUGGGCAGAGCUCAACACAGCGUGGCAAGGUGGCUGUGGCUAGACUGCCUCUCUGGAUUCCUCGUCACUCAGCAGGGCAUCUCUGAGAGAAAUGCC: 1.18.
Then UACGUAGGUGGUUUCCCCCUGAUAGUGCUAAGGGGGCCUGGAAGUUUGGACUGGGCAGAGCUCAACACAGCGUGGCAACGUGGCUGUGGCUAGACUGCCUCUCUGGAUUCCUCGUCACUCAGCAGGGCAUCUCUGAGAGAAAUGCC, with 1.84; and UACGUAGGUGGUUUCCCCCUGAUAGUGCUAAGGGGGCCUGGAAGUUUGGACUGGGCAGAGCUCAACACAGCGUGGCAAAGUGGGUGUGGCUAGACUGCCUCUCUGGAUUCCUCGUCACUCAGCAGGGCAUCUCUGAGAGAAAUGCC, with 0.21.
Then UACGUAGGUGGUUUCCCCUUGAUAGUGCUAAGGGGGCCUGGAAGUUUGGACUGGGCAGAGCUCAACACAGCGUGGCAAAGUGGCUGUGGCUAGACUGCCUCUCUGGAUUCCUCGUCACUCAGCAGGGCAUCUCUGAGAGAAAUGCC, with 1.08; and UACGUAGGUGGUUUCCCCCUGAUAGUGCUAAGGGGGCCUGGAAGUUUGGACUGGGCAGAGCUUAACACAGCGUGGCAAAGUGGCUGUGGCUAGACUGCCUCUCUGGAUUCCUCGUCACUCAGCAGGGCAUCUCUGAGAGAAAUGCC, with 0.43.
As for UACGUAGGUGGUUUCCCCCUGAUAGUGCUAAGGGGGCCUGGGAGUUUGGACUGGGCAGAGCUCAACACAGCGUGGCAAAGUGGCUGUGGCUAGACUGCCUCUCUGGAUUCCUCGUCACUCAGCAGGGCAUCUCUGAGAGAAAUGCC, the self-cleavage came out at 1.43.
The same measure for UACGUAGGUGGUUUCCCCCUGAUAGUGCUAAGGGGGCCUGGUAGUUUGGACUGGGCAGAGCUCAACACAGCGUGGCAAAGUGGCUGUGGCUAGACUGCCUCUCUGGAUUCCUCGUCACUCAGCAGGGCAUCUCUGAGAGAAAUGCC: 1.38; for UACGUAGGUGGUUUCCCCCUGAUAGUGCUAAGGGGGCCUGGAAGUUUGGACUGGGCAGAGCUCAACACAGCGUGGCAAAGUGGCUGUGGCUAGACUGCCUCUUUGGAUUCCUCGUCACUCAGCAGGGCAUCUCUGAGAGAAAUGCC: 1.53.
Then UACGUAGGUGGUUUCCCCCUGAUAGUGCUAAGGGGGCCUGGAAGUUUGGACUGGGCAGAGCUCAACACAGCGUGGCAAAGUGGCUGUGGCUAGACUGCCUCUCUGGAUUCCUCGUCACUCGGCAGGGCAUCUCUGAGAGAAAUGCC, with 1.34; and UACGUAGGUGGUUUCCCCCUGAUAGUGCUAAGGGGGCCUGGAAGUUUGGACUGGGCAGAGCUCAACACAGCGUGGCAAAGUGGCUGUGGCUAGACUGCCUCUCUGGAUUCCUCGUCACUCUGCAGGGCAUCUCUGAGAGAAAUGCC, with 1.79; and UACGUAGGUGGUUUCCCCCUGAUAGUGCUAAGGGGGCCUGGAAGUUUGGACUGGGCAGAGCUCAACACAGCGUGGCAAAGUGGCUGUGGCUAGACUGCCUCUCUGGAUUCCUCGUCACUCAGCAGGGCAUCUCUGGGAGAAAUGCC, with 1.52.
With UACGUAGGUGGUUUCCCCCUGAUAGUGCUAAGGGGGCCUGGAAGUUUGGACUGGGCAGAGCUCAACACAGCGUGGCAAAGUGGCUGUGGCUAGACUGCCUCUCUGGAUUCCUCGUCACUCAGCAGGGCAUCUCUGCGAGAAAUGCC, the self-cleavage stood at 1.99.
UACGUAGGUGGUUUCCCCCUGAUAGUGCUAAGGGGGCCUGGAAGUUUGGACUGGGCAGAGCUCUACACAGCGUGGCAAAGUGGCUGUGGCUAGACUGCCUCUCUGGAUUCCUCGUCACUCAGCAGGGCAUCUCUGAGAGAAAUGCC: the self-cleavage was determined as 0.66.
With UACGUAGGUGGUUUCCCCCUGAUAGUGCUAAGGGGGCCUGGAAGUUUGGACUGGGCAGAGCUCAACACAGCGUGGCAAAGUGGCUGUGGCUAGACUGCCUCUCUGGAUUCUUCGUCACUCAGCAGGGCAUCUCUGAGAGAAAUGCC, the self-cleavage amounted to 1.47.
Then UACGUAGGUGGUUUCCCCCUGAUAGUGCUAAGGGGGCCUGGAAGUUUGGACUGGGCAGAGCUCAACACAGCGUGGCAAAGUGGCUGUGGCUAGACUGCCUCUCUGGAUUCCUCGUCACUCAGCAGGGCAUCUCUGAGAGAGAUGCC, with 1.51.
Turning to UACGUAGGUGGUUUCCCCCUGAUAGUGCUAAGGGGGCCUGGAAGUUUGGACUGGGCAGAGCUCAACACAGCGUGGCAAAGUGGCUGUGGCUAGACUGCCUCUCUGGAUUCCUCGUCACUCAGCAGGGCAUCUCUGAGAGGAAUGCC, the self-cleavage came to 1.59.
Consider UACGUAGGUGGUUUCCCCCUGAUAGUGCUAAGGGGGCCUGGAAGUUUGGACUGGGCAGAGCUCAACACAGCGUGGCAAAGUGGCUGUGGCUAGACUGCCUCUCUGGAUUCCUCGUCACUCAGCAGGGCAUCUCUGAGAGCAAUGCC, for which the self-cleavage amounted to 1.12.
Then UACGUAGGUGGUUUCCCCCUGAUAGUGCUAAGGGGGCCUGGAAGUUUGGACUGGGCAGAGCUCACCACAGCGUGGCAAAGUGGCUGUGGCUAGACUGCCUCUCUGGAUUCCUCGUCACUCAGCAGGGCAUCUCUGAGAGAAAUGCC, with 0.09; and UACGUAGGUGGUUUCCCCCUGAUAGUGCUAAGGGGGCCUGGAAGUUUGGACUGGGCAGAGCUCAGCACAGCGUGGCAAAGUGGCUGUGGCUAGACUGCCUCUCUGGAUUCCUCGUCACUCAGCAGGGCAUCUCUGAGAGAAAUGCC, with 0.1.
Then UACGUAGGUGGUUUCCCCCUGAUAGUGCUAAGGGGGCCUGGAAGUUUGGACUGGGCAGAGCUCAACUCAGCGUGGCAAAGUGGCUGUGGCUAGACUGCCUCUCUGGAUUCCUCGUCACUCAGCAGGGCAUCUCUGAGAGAAAUGCC, with 0.17; and UACGUAGGUGGUUUCCCCCUGAUAGUGCUAAGGGGGCCUGGAAGUUUGGACUGGGCAGAGCUCAACCCAGCGUGGCAAAGUGGCUGUGGCUAGACUGCCUCUCUGGAUUCCUCGUCACUCAGCAGGGCAUCUCUGAGAGAAAUGCC, with 0.07.
Regarding UACGUAGGUGGUUUCCCCCUGAUAGUGCUAAGGGGGCCUGGAAGUUUGGACUGGGCAGAGCUCAACAUAGCGUGGCAAAGUGGCUGUGGCUAGACUGCCUCUCUGGAUUCCUCGUCACUCAGCAGGGCAUCUCUGAGAGAAAUGCC, the self-cleavage was 0.19.
The same measure for UACGUAGGUGGUUUCCCCCUGAUAGUGCUAAGGGGGCCUGGAAGUUUGGACUGGGCAGAGCUCAACACGGCGUGGCAAAGUGGCUGUGGCUAGACUGCCUCUCUGGAUUCCUCGUCACUCAGCAGGGCAUCUCUGAGAGAAAUGCC: 0.47; for UACGUAGGUGGUUUCCCCCUGAUAGUGCUAAGGGGGCCUGGAAGUUUGGACUGGGCAGAGCUCAACACAGCGUGGCAAAGUGGCUGUGGCUGGACUGCCUCUCUGGAUUCCUCGUCACUCAGCAGGGCAUCUCUGAGAGAAAUGCC: 0.21.
Regarding UACGUAGGUGGUUUCCCCCUGAUAGUGCUAAGGGGGCCUGGAAGUUUGGACUGGGCAGAGCUCAACACAGCGUGGCAAAGUGGCUGUGGCUAGACUGCCUCUCUGGAUUCCUCGUCCCUCAGCAGGGCAUCUCUGAGAGAAAUGCC, the self-cleavage came to 2.07.
Then UACGUAGGUGGUUUCCCCCUGAUAGUGCUAAGGGGGCCUGGAAGUUUGGACUGGGCAGAGCUCAACACAGCGUGGCAAAGUGGCUGUGGCUAGACUGCCUCUCUGGAUUCCUCGUCGCUCAGCAGGGCAUCUCUGAGAGAAAUGCC, with 1.83.
Then UACGUAGGUGGUUUCCCCCUGAUAGUGCUAAGGGGGCCUGGAAGUUUGGACUGGGCAGAGCUCAACACAGCGUGGCAAAGUGGCUGUGGCUAGACUGCCUCUCUGGAUUCCUCGUCACUCAGCAGGGCUUCUCUGAGAGAAAUGCC, with 1.06; and UACGUAGGUGGUUUCCACCUGAUAGUGCUAAGGGGGCCUGGAAGUUUGGACUGGGCAGAGCUCAACACAGCGUGGCAAAGUGGCUGUGGCUAGACUGCCUCUCUGGAUUCCUCGUCACUCAGCAGGGCAUCUCUGAGAGAAAUGCC, with 1.28.
The same measure for UACGUAGGUGGUUUCCCCCUGAUAGUGCUAAGGGGGCCUGGAAGUUUGGACUGGGCAGAGCUCAACACAGCGUGGCAAAGUGGCUGUGGCUAGACUGCCUCUCUGGUUUCCUCGUCACUCAGCAGGGCAUCUCUGAGAGAAAUGCC: 1.2; for UACGUAGGUGGUUUCUCCCUGAUAGUGCUAAGGGGGCCUGGAAGUUUGGACUGGGCAGAGCUCAACACAGCGUGGCAAAGUGGCUGUGGCUAGACUGCCUCUCUGGAUUCCUCGUCACUCAGCAGGGCAUCUCUGAGAGAAAUGCC: 1.02; for UACGUAGGUGGUUUCCCCCUGAUAGUGCUAAGGGGGCCUGGAAGUUUGGUCUGGGCAGAGCUCAACACAGCGUGGCAAAGUGGCUGUGGCUAGACUGCCUCUCUGGAUUCCUCGUCACUCAGCAGGGCAUCUCUGAGAGAAAUGCC: 1.
For the variant UACGUAGGUGGUUUCCCCCUGAUAGUGCUAAGGGGGCCUGGAAGUUUGGACUGGGCAGAGCUCAACACAGCGUGGCAAAGUGGCUGUGGAUAGACUGCCUCUCUGGAUUCCUCGUCACUCAGCAGGGCAUCUCUGAGAGAAAUGCC, the self-cleavage was found to be 0.02.
The same measure for UACGUAGGUGGUUUCCCCCUGAUAGUGCUAAGGGGGCCUGGAAGUUUGGACUGGGCAGAGCUCAACACAGCGUGGCAAAGUGGCUGUGGCUAGGCUGCCUCUCUGGAUUCCUCGUCACUCAGCAGGGCAUCUCUGAGAGAAAUGCC: 0.34.
The same measure for UACGUAGGUGGUUUCCCCCUGAUAGUGCUAGGGGGGCCUGGAAGUUUGGACUGGGCAGAGCUCAACACAGCGUGGCAAAGUGGCUGUGGCUAGACUGCCUCUCUGGAUUCCUCGUCACUCAGCAGGGCAUCUCUGAGAGAAAUGCC: 0.75; for UACGUAGGUGGUUUCCCCCUGAUAGUGCUAUGGGGGCCUGGAAGUUUGGACUGGGCAGAGCUCAACACAGCGUGGCAAAGUGGCUGUGGCUAGACUGCCUCUCUGGAUUCCUCGUCACUCAGCAGGGCAUCUCUGAGAGAAAUGCC: 0.95.

Source of the values: the RNAGym collection of RNA variant scans (doi:10.7554/elife.90254).
